According to the supplement of paper PMC9170038:

Test system: K4 kissing-loop RNA reporter
Experiment: apparent KD of K4 kissing-loop reporter; higher = weaker reporter binding
Conditions: Eterna round: R107
Method: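 RNA-MaP round R107: designed RNA switches with theophylline, tryptophan, arginine or FMN aptamers are transcribed on-chip within common flanks. They are titrated with a labelled K4 kissing-loop RNA reporter in RNA-MaP buffer (100 mM Tris pH 7.5, 80 mM KCl, 4 mM MgCl2), without ligand or with the indicated ligand. Median apparent KD per design.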

[1] = input ligand: theophylline 20 uM
[2] = input ligand: tryptophan 2.4 mM
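Further: bound reporter read as fluorescence of individual clusters on recovered sequencing chips by microscopy, with normalized cluster intensities fitted with a binding model.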

Sequence	apparent KD of K4 kissing-loop reporter (input ligand: FMN 200 uM) [nM]	apparent KD of K4 kissing-loop reporter (input ligand: arginine 13.2 mM) [nM]	apparent KD of K4 kissing-loop reporter (input ligand: none) [nM]	apparent KD of K4 kissing-loop reporter [1] [nM]	apparent KD of K4 kissing-loop reporter [2] [nM]
UGUAAUUCGGCGGCCGCCACUGACCAUAGCCUUCGAUGGCCAGUGAUGUUGGCCUCUGGCUCUAACAGGACCGGGCCGAAUUGCG [Sotetiqu]	243	133	178	157	116
AAGGGCGAGGUAACGUGGAUAUCUCGUCGCAAGGAUAUCUGGAAACAGAGAAGGUGCGACAUCACCGGCAGUGAUGUUGCUGGGC	298	185	233	227	181
UAUUAAUUGUCAGGAUAUCGUAAACGAGUGAUGUUCGUAUAUCGACGAUAGUCGAUUCUAUCUAAACGAGAAGGGACAUUAUUUA [JR_SSFMNB_Sub008]	346	454	664	516	420
AAAGGCAUAGCCCGAGUGAUGUUCGACGAUACCAGCCUCGAUAGAGGCCCUUGGCAGCGUAAAUGAUCAUGAAGCCAAGGAAUAA [whbob_Ex_Theo_A_th68]	340	303	391	816	422
UGUACCGACUCAGGAUAUGUCGUCGAAAGACGAAAUGGAGUGAUGUUCCUUAAACUGCGAAAGCAGACAGAAGGGAGUUGGUACU [FmnBS 29 C9+G77]	137	200	235	233	216
AAUGUACAGGGAAGGAGCGUAGUCCAGUGAUGUUGGAAUUAAAUACCAGUGAUGUUGGUUAUACAGGUAGGUCGCCCUAAAGUGC [KL-XARG-B20]	86.3	72.3	81.9	89.5	73.2
UCUGUUGUAUAUGAUACCAGCAGUGAGAGAUGAGAAGUAUAGUGAUGUUAUAUGAGAGAAUGCCCUUGGCAGCGUGUGCGUGUGG [SSTheophylB.aC]	105	98.3	83.2	100	76.9
GGACGCCGGUCGGCCGCCACUCACAGCAGUGAUGUUGCUGAGAAUGUAGCGGAGUGAUGUUCCGAGAGGACCGGGACUGCAGUUU [Same State Tryptophan B GF 9]	240	157	198	186	210
GGAGUUACCUGGGAUACCAGUCGGAGACCCAGAGCUCGGAGUGAUGUUCUGGGAUGUUUCGGCCCUUGGCAGCUCUGGGUCUCCC [#2 Exclusion - Theophylline B Attempt #8 (HarryS)]	909	615	723	936	675
CUGACGUGCGGUAGGUUCAAGUGCUGGGAAGGAGCGCAGAUGACUGCAGGUAGGUCGCCCAGUGAUGUUGGGCUUUCCACCUACG [Quinbe]	186	180	193	214	186
AGGUUUUGAUUAGGAUAUGCACUGACGAUGAGAAUAUAGUGAUGUUAUAUACUACGAAUUAGUAGAGUAGAAGGGAUUGAGGUUU [SSFMNB.Z]	568	338	414	459	335
UAGGAGUGAUGUUCCAUAUGUAAGGCCGAAGGAGCGGCAUUAUAGCCAGGUAGGUCGCGGCAGUACGUACCAGUGAUGUUGGAAA [KL-SSArg-A5]	173	94.9	150	119	116
AUUACAUCUGAAAAGCUAGUGAUGUUAGCUCGAGGACCGGUACGGCCGCCACUCGCAUAGCGAGGCCAAGUCGCGGUUAACGGAG [theeternabot_exclusion_KL_Trp_A_4]	96.7	86.7	97.2	89.1	83.3
GUUGUAUACUGAAGGAGCGAGUAGUGGAAACAUAAACUCAUUGCGAGUGAUGUUCGCAGUACUCAGGUAGGUCGCAGUAAUCGUA [Exclusion Arginine B Gf 10]	534	315	566	453	456
UGCGCUGUGUCCUAAAAUGUCCUCCGGGAUACCAGAGUCUUUUUAUUCCCUUGGCAGCUUGAGUGAUGUUUGAUGCCGUUCUUGU [xxbxymullin]	811	478	790	519	607
UUUUAUAACCGAAGGAGCGCGUGGGCGCAGUGAUGUUGCGCCCGACAUCACUUCAACUUAACGCAGGUAGGUCGCGGUUUUAAUG [Arginine B (Excl) V3]	148	147	181	163	168
AAGUCAUAGGCAGGAUAUGCUUAGUAUUAAGGCCAUAUAUACGUAUAGAGUGAUGUUUUGUACCAGGCAGAAGGGCUACAUCAGU [FMN B Excl V6 (+A)]	448	483	603	634	536
UGUCAUUGGUCGGCCGCCACUUCAUGUAGAGUGAUGUUUUGUAGGACGGAUCGAAAGAUCUGUCGGAGGACCGGGACCGAUGACU [FiskerMod 16 - Jieux - Same State - Tryptophan B]	121	119	134	266	1690
UUAGGAGUGGGAGGAUAUCCUAAUAUGGGUGAUGUUAGCGAUGUUGAAAGUGUAGUGAUGUUGUGCGGAGAAGGUCCAGUGUUGA [BDazzled - #13 - Exc. FMN B]	196	126	178	222	161
UUAUAUAUAUCAGAUACCAGCAUAAUGGAAACAAAUUAUGUUAUGAGUGAUGUUCAUGUAUGCCCUUGGCAGCUGGUAUGGGUUU [KL-XTheo-B19]	467	412	433	487	363
CAUAGACAAGUGAUGUUUGUCAUAACCGAAGGAGCGUCUUUAAAGACAGGUAGGUCGCGGAUUAAUUAAGUUAUUAUUCUUUUUA [JR_SSArginiA_Sub018]	552	494	644	573	439
GCUGUCCAGUUCGAUACCAGAGUUAUCGCACUGUAGUGAUAAAGUGAUGUUUUAUCAGUCCUCCCUUGGCAGCGAUGCCCGGCUG [theeternabot_exclusion_KL_Theo_B_25]	164	151	166	165	154

Sequence	apparent KD of K4 kissing-loop reporter (input ligand: FMN 200 uM) [nM]	apparent KD of K4 kissing-loop reporter (input ligand: arginine 13.2 mM) [nM]	apparent KD of K4 kissing-loop reporter (input ligand: none) [nM]	apparent KD of K4 kissing-loop reporter [1] [nM]	apparent KD of K4 kissing-loop reporter [2] [nM]
UGUCAUUGGUCUGAUACCAGGUUGAUCGGUAAACGAUCUCCUGGAGUGAUGUUCCAAAAUAUCCCUUGGCAGCAGACCGAUGACU [TheoBS 6 #SwitchBubble #StaticStem]	571	320	545	492	350
GCUAGCAAUGCAGGAUAUUAAAACGAGUGAUGUUCGGUACCGAGGAUGGGAAACCAUCCUCGGUAAUAAGAAGGGCAUUGCUAGC	210	182	194	211	172
GGUGACAACCAGAGGUGAUGUAUAGAAUCGCGAGGACCGGUACGGCCGCCACUCGUGAAGAGAAAGGAGUGAUGUUCCGUAAUGG [Kazoo C6]	271	249	282	364	124
AAGGUCACUACUACAGUGAUGUUGUGGGAGCAGGAUAUGCAGAAAUGCAGAAGGGCUCGCUCCAAGUGACCGAAUGAAACAUUCA [Omei KL FMN A SS A v1]	1170	876	839	1210	938
AAACUCAGUGAUGUUGAGUGGGAGCGGGAUACCAGAUCGCCCAUCAUCCCUUGGCAGCCCGAGCGUCAGAAUACAUUUCAUUUGC [theeternabot_sameState_KL_Theo_A_6]	339	349	349	385	263
GGGUGAGCGCGAAGGAGCGCCCUGACAGGUUGCUGCCGUGGGCAGUGAUGUUGCUCAGUCCGGCAGGUAGGUCGCGUGCUCACCC	187	163	164	210	170
CUGACGAUGACACGGUGGCCGCUGGUCGUGCGAGGACCGGUACGGCCGCCACUCGCAUGAGUGAUGUUCAUGUGUCGUCGUCGUC [#08 K4 Tryptophan A Exclusion]	133	101	111	112	118
AAGUCAUACAGAAGGAGCGUGUUUUAUAAUUUAUUUUCAUGAUCGAGUGAUGUUCGAUAUACACAGGUAGGUCGCUGUAUAAUAA [JR_SSArginiB_Sub007]	102	146	121	146	103
CGUUUAUAGCAGGAUACCAGUACCGAUAAAGUACGUUAAUAGUAGAGUGAUGUUCUAAAGUACCCUUGGCAGCUUAGAGUGAGUG [ExTheophylB.P]	95.3	142	111	162	74.5
GGGAGUAGUGCGGCCGCCACUGUGAAAGUAGAAGAAUAUAGUGAUGUUAUAUAGGAAUAAAAGAAUAGGACCGGGCAUUAGAUUU [SSTRyptB.V]	190	215	212	249	168
CGCUUGCACGGAAGGAGCGUCCAAGCGAGACACGAGUGAUGUUCGUGAUCGACGUAAACUGGACAGGUAGGUCGCCGUGCUUAAU [Eresti]	107	91	121	101	100
UAAGAGGACCACUGCGAGAGUCCUCGAAUACGAGGACCGGUACGGCCGCCACUCGAUAAUUUGUAGUGAUGUUGCAAGUAAGAAU [BrourdMod 7 - Jieux - Same State Tryptophan A]	50.3	64.5	42.1	61.9	31.8
UAUAGAGUGACGGCCGCCACUAUUGUGAUUUAAUUGUUAGAGUGAUGUUUUGUUGUUUGAUUUUGUAGGACCGGGUUAUAUGUUA [ecewzmullin]	1050	768	976	854	802
GUCGGCCGCGCGCAAGCGCGGCCGGCCGAUACCAGCGCGCCGGCGCGCCCUUGGCAGCGGCGCCGAGUGAUGUUCGGCCUGACGU [#2 Same State - Theophylline A Attempt #7 (HarryS)]	710	538	704	601	917
GACAGCCGGUCGGCCGCCACUUGGAGUGAUGUUCCGCGCGGCGGGCGCCGGAGGGCGUUAAGCCCAAGGACCGGGACCGGUAACG [Celeso]	114	103	92.9	114	104
AUAGCUGAUAGCAGUGAUGUUGCUUCAGAUACCAGACGAGAUCAUGUCCCUUGGCAGCUGACAUGGCAAGUGCUAGGUUAGAUGA [#11 K4 Theophylline A Exclusion]	140	114	125	120	130
GGAUAGGACAGAGGAUAUCUCUGAGGCAAGAAAACUUGUCUCUAAAGAGAUGACUCAGUGAUGUUGGGAGAAGGCUGUCCUAUCG [FmnBX 10 - #SwitchBubble #StaticStem]	202	139	141	167	125
AAAUCUUUCAGAAGGAGCGUGGAUUAUUCUUAUAUAUUUAUUACGAGUGAUGUUCGUAAUUCACAGGUAGGUCGCUGAUCAAUAA [JR_ExcArginiB_Sub006]	87.5	105	91.1	109	89.8
GUGUAACGAGGAAACCUCGUUACACCCUCACGAGGACCGGUACGGCCGCCACUCGAGAGCUCGUGAGGAGUGAUGUUCCUCGUGA	695	335	441	435	184
AACUGUCAAGGACAACAUUACUGCAGUGAUACCAGCAUCGAAAGAUGCCCUUGGCAGCACUAACUUGCAGUGAUGUUGCAAGUAA [BrourdMod 4 - Jieux - Exclusion - Theophylline A]	313	245	256	225	264
UCUUUUGGCAUGGAUAGAAUGCCGACCGAUACCAGCAAAGUAGGAUGCCCUUGGCAGCGGAGUGAUGUUCCAUUGUCGCGGUUUG [theeternabot_exclusion_KL_Theo_A_48]	82.7	91.3	86.9	84.4	76.9
